Data as given in patent US20220332804A1 (CSL INNOVATION, published 2022).

Tests used:
Assay in all cases: SPR, KD relative to WT C2;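 further: biacore SPR at 37 °C, anti-C2 mAbs captured on anti-human IgG chips with alanine or serine point mutants of C2 as analyte, KD from 1:1 fit compared with wild-type C2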
[1] = biological target: T1, human C2 R434A (human, UniProt P06681 21-752)
T1 sequence: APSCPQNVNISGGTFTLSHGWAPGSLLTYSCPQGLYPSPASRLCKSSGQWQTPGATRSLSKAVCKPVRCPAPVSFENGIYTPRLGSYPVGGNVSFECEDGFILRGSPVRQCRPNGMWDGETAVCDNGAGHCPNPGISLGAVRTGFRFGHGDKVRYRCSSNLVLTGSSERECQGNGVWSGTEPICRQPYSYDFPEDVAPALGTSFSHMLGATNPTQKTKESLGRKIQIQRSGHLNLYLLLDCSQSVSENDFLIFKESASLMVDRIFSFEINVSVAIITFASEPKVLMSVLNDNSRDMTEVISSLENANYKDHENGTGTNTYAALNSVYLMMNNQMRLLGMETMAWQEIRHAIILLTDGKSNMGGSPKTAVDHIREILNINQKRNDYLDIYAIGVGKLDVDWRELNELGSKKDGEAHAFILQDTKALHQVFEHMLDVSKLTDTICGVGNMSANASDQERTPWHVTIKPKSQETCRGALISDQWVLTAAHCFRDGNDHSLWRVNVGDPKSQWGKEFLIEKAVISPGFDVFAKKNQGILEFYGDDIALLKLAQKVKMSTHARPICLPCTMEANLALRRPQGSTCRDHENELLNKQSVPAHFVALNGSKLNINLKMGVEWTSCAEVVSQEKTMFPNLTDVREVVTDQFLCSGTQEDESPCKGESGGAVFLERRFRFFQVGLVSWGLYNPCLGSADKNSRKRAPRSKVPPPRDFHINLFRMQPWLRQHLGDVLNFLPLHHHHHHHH

[2] = biological target: T2, human C2 Q447A (human, UniProt P06681 21-752)
T2 sequence: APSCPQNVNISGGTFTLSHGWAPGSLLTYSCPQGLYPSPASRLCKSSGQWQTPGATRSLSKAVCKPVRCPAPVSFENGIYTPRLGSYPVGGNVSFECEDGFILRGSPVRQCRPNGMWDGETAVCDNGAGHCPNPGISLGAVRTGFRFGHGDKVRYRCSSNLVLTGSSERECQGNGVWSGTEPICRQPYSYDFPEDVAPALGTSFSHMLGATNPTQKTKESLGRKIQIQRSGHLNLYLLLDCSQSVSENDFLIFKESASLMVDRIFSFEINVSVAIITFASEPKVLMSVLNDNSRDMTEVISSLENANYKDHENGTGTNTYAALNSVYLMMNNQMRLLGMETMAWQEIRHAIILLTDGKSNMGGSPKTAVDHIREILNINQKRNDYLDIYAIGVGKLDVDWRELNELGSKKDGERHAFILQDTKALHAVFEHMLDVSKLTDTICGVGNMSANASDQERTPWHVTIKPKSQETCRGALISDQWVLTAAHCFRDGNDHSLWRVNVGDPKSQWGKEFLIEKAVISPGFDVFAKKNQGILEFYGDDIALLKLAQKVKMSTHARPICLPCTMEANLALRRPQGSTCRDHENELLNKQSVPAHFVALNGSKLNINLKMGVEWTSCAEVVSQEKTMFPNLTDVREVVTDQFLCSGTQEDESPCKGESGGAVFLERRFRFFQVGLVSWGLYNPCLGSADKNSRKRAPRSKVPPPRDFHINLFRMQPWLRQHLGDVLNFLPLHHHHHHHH

[3] = biological target: T3, human C2 F437A (human, UniProt P06681 21-752)
T3 sequence: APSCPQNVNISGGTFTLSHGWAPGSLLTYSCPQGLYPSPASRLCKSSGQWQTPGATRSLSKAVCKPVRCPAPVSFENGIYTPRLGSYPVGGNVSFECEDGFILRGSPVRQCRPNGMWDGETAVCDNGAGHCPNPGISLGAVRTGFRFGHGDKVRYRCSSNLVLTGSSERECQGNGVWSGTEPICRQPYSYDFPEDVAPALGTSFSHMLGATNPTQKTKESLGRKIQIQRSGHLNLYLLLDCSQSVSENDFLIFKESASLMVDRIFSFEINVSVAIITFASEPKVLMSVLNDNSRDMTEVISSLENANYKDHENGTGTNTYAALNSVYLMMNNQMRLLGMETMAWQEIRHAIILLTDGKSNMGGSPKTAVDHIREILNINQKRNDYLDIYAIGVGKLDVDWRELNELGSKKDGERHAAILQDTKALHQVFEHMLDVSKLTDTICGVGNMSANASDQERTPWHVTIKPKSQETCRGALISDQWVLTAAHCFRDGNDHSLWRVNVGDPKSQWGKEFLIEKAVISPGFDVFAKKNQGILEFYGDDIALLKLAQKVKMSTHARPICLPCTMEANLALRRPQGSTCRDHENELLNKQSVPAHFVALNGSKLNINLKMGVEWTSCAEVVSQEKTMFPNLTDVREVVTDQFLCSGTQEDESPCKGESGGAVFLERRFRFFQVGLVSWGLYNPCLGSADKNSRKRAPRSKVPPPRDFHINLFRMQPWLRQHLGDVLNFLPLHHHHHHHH

[4] = biological target: T4, human C2 L453A (human, UniProt P06681 21-752)
T4 sequence: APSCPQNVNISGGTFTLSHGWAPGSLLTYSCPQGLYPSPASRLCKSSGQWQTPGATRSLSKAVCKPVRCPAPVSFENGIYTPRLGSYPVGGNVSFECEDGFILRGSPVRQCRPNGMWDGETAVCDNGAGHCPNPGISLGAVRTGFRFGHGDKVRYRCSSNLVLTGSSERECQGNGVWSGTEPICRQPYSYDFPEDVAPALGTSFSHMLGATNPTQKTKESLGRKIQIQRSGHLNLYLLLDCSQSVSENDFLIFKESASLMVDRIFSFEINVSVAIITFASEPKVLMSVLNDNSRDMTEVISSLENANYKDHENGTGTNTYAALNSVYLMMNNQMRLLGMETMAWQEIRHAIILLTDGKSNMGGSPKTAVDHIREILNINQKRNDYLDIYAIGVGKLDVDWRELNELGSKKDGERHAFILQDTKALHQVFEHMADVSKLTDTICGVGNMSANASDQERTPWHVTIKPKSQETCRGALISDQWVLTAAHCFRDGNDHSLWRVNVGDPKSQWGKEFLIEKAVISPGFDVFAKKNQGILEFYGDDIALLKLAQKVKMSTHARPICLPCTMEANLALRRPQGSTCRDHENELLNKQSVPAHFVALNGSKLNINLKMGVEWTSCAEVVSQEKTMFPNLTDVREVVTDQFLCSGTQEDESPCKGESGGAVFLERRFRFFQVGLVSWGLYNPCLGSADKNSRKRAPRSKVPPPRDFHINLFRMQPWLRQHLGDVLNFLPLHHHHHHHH

B1: RF16-242 (antibody, human IgG4 S228P, lambda, V domains shown)
VH: EVQLLQSGAEVKKPGESLKISCKGSGYSFTSYWIGWVRQMPGKGLEWMGIIYPGDSDTRYSPSFQGQVTISADKSISTAYLQWSSLKASDTAMYYCARRGHYGDYFDYWGQGTLVTVSS
VL: SYELTQPPSVSVSPGQTARITCSGDALPKKYAYWYHQKSGQAPVLVIYEDRRRPSEIPERFSGSSSGTMATLTITGAQVEDEGVYFCYSRDRAGNQRVFGGGTQLTVLG
notes: pH-dependent anti-C2 antibody from a phage display library
Fold diff [1]: 14 fold | Fold diff [2]: 4 fold | Fold diff [3]: 15 fold | Fold diff [4]: 1 fold
